{
  "source": "paper PMC11581309",
  "origin": "cited, not measured here",
  "key": {"CDH1 (Gallus gallus)": {"biological_target": "CDH1 (Gallus gallus) (UniProt P08641)"}, "CDH1 (Mus musculus)": {"biological_target": "CDH1 (Mus musculus) (UniProt P09803)"}, "CDH1 (Homo sapiens)": {"biological_target": "CDH1 (Homo sapiens) (UniProt P12830)"}, "CDH2 (Gallus gallus)": {"biological_target": "CDH2 (Gallus gallus) (UniProt P10288)"}, "CDH2 (Mus musculus)": {"biological_target": "CDH2 (Mus musculus) (UniProt P15116)"}, "CDH2 (Homo sapiens)": {"biological_target": "CDH2 (Homo sapiens) (UniProt P19022)"}},
  "data": [
    {"substance": "CDH1 (from UniProt P08641)", "values": [
      {"measurement": "Kd", "setting": "CDH1 (Gallus gallus)", "value": 110, "unit": "µM"}
    ]},
    {"substance": "CDH1 (from UniProt P09803)", "values": [
      {"measurement": "Kd", "setting": "CDH1 (Mus musculus)", "value": 160, "unit": "µM"}
    ]},
    {"substance": "CDH1 (from UniProt P12830)", "values": [
      {"measurement": "Kd", "setting": "CDH1 (Homo sapiens)", "value": 217, "unit": "µM"}
    ]},
    {"substance": "CDH2 (from UniProt P10288)", "values": [
      {"measurement": "Kd", "setting": "CDH2 (Gallus gallus)", "value": 20.4, "unit": "µM"}
    ]},
    {"substance": "CDH2 (from UniProt P15116)", "values": [
      {"measurement": "Kd", "setting": "CDH2 (Mus musculus)", "value": 22.6, "unit": "µM"}
    ]},
    {"substance": "CDH2 (from UniProt P19022)", "values": [
      {"measurement": "Kd", "setting": "CDH2 (Homo sapiens)", "value": 22.1, "unit": "µM"}
    ]}
  ]
}
